Test results reported in PMC6212786 (Nucleic Acids Research, 2018).

B1: T4 sliding clamp gp45, full length (trimer) (natural protein, bacteriophage T4, UniProt P04525 1-228, looked up)
chain: MKLSKDTTALLKNFATINSGIMLKSGQFIMTRAVNGTTYAEANISDVIDFDVAIYDLNGFLGILSLVNDDAEISQSEDGNIKIADARSTIFWPAADPSTVVAPNKPIPFPVASAVTEIKAEDLQQLLRVSRGLQIDTIAITVKEGKIVINGFNKVEDSALTRVKYSLTLGDYDGENTFNFIINMANMKMQPGNYKLLLWAKGKQGAAKFEGEHANYVVALEADSTHDF

Tests used:
[1] = molecular target: T1, Full-length wild-type T4 DNA ligase (gp30) (bacteriophage T4, UniProt P00970 1-487); assay: SEC
T1 sequence (looked up): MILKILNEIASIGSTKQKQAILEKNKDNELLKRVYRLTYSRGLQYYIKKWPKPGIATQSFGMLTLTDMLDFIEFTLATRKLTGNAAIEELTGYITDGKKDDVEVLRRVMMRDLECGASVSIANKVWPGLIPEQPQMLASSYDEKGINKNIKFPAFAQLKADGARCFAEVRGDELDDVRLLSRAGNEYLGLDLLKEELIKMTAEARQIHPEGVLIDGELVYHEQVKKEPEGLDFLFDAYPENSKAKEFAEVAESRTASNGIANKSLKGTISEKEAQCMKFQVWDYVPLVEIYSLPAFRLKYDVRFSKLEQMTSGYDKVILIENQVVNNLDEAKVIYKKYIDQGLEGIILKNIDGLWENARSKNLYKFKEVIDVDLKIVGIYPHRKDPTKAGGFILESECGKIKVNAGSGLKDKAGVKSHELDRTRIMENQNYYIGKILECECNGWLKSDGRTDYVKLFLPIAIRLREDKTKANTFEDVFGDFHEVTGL

[2] = molecular target: B1; assay: ITC

Row | Binder | binding result [1] | Kd [2] [µM] | stoichiometry N [2] [peptides per gp45 trimer]
1 | B1 | binds | – | –
2 | KKEPEGLDFLFDA [T4 ligase loop peptide KKEPEGLDFLFDA] | – | 10.7 | 3
